This assay has as its target GFP–TGN46 (UniProt O43493). As to the kind of experiment: single-molecule GFP step-photobleaching by TIRF (NativeNanoBleach); ChloroSMA60-extracted total membrane of cells expressing GFP–TGN46 passed over glass slides with streptavidin and biotinylated GFP nanobody; discs captured and GFP bleaching steps counted; 1,000–1,500 particles for each biological replicate, corrected for GFP maturation efficiency.

Sequence of GFP–TGN46, O43493 22-437 (natural protein; other documents disagree on this pair) (O43493 22-437): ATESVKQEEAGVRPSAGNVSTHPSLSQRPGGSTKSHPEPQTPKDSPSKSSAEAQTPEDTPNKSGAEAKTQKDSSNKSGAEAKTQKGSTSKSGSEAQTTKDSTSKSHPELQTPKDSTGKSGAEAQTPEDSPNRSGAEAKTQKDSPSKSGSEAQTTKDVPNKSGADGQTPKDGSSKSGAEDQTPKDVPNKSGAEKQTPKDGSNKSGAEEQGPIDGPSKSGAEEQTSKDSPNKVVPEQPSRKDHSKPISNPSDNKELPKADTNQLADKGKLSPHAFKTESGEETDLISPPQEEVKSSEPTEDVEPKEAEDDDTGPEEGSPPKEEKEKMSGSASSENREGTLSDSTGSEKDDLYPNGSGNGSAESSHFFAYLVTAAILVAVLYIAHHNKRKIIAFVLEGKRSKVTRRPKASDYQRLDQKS

Turning to “GFP–TGN46, O43493 22-437 (natural protein; other documents disagree on this pair)”, the stoichiometry N is 1 to 4.

(Values after paper PMC11810782.)
